Laboratory results published in patent US12617827B2, “Self-assembling peptide” (NATIONAL UNIVERSITY CORPORATION TOKYO MEDICAL AND DENTAL …, priority 2020, dated 2026).
Where two headings read alike, the source gives them in different places.

Columns and labels:
[1] = molecular target: RADA16 peptide, as RADA16 peptide gel; experiment: incorporation into the peptide gel; unincorporated fraction in PBS washes measured by sandwich ELISA
[2] = Rheological property of the peptide gel (rheometer, storage elastic modulus G′ and loss elastic modulus G″); format: physicochemical; conditions: peptide concentration 1.0% by weight
Description: Among gels having a concentration of 1.0% by weight prepared in Example 1, gels formed by six types of peptide samples as examples: […] peptide (SEQ ID NO: 1), […] peptide (SEQ ID NO: 2), […] peptide (SEQ ID NO: 4), […] peptide (SEQ ID NO: 5), […] peptide (SEQ ID NO: 6), and […] peptide (SEQ ID NO: 8) were subjected to measurement of the rheological property thereof.
The rheological property was measured for 250 μL of a sample with a rheometer (Malvern Panalytical, Kinexus lab+). Specifically, the sample was sandwiched at a gap of 0.2 mm between plates, and subjected to measurement at 20° C.
The storage elastic modulus G′ and the loss elastic modulus G″ of a gel formed by each peptide are obtained by measurement of the rheological property. The storage elastic modulus G′ represents a component stored in an object, of the energy generated by an external force to the object and a strain, and the loss elastic modulus G″ represents a component externally diffused. In a case where a measurement specimen is a gel, the storage elastic modulus G′ generally exceeds the loss elastic modulus G″.

[3] = cited from earlier work
[4] = Fluidity test (gel formation ability) of peptide samples; format: physicochemical; conditions: 1.0% by weight in D-MEM (44 mM NaHCO3, pH 7.4), 37°C, CO2 5%, 48 hours
Description: A peptide powder after freeze-drying at 2.5 mg and 250 μL of D-MEM (containing 1×penicillin, 4.0 mM HEPES, 44 mM NaHCO3; pH 7.4) were added to a 1-mL microtube (glass container having an inner diameter of 5 mm and a height of 5 cm; Maruemu Corporation, Model No. 1), and ultrasound was irradiated in a water bath type ultrasonic apparatus (AS12GTU, 35 kHz, 60 W), to thereby disperse the peptide at a concentration of 1.0% by weight. Thereafter, the microtube was left to stand in a CO2 incubator (37° C., CO2 concentration 5%) for 48 hours in a state standing vertically with the bottom surface thereof facing downward. Penicillin (Life Technologies Corporation, Model No. 15140148) was used as an antibacterial agent at 100 U/mL for the purpose of prevention of mold generation, and a CO2 incubator was used for performing gelling in a condition similar to an in vivo condition.
In order to test whether the peptide sample lost fluidity and gelled, the sample was sealed in a CO2 incubator (37° C., CO2 concentration 5%) and taken out of the incubator, the microtube was rapidly flipped vertically, and a photograph of the peptide sample was taken and recorded. In a case where a portion or all of the peptide sample remained on the bottom surface side of the microtube, the peptide sample was determined to have lost fluidity and gelled. On the other hand, in a case where all of the peptide sample dropped to the cap side of the microtube, the peptide sample was determined not to have gelled.
Additional five types of peptides: […] (SEQ ID NO: 41), […] (SEQ ID NO: 42), […] (SEQ ID NO: 43), […] (SEQ ID NO: 44), and […] (SEQ ID NO: 45) were synthesized according to the same methods as in (1) to (3) of Example 1, and were subjected to gelling and fluidity test.

[5] = tested on: mouse fetus-derived 3T3 cells (NIH3T3 cells); experiment: Evaluation of cell adhesiveness on peptide-coated chamber slide; format: cell-based; conditions: 30 minutes on peptide-coated slide, compared with (RADA)4 peptide control
Description: A peptide sample having a concentration of 1.0% by weight was prepared by the same method as in Example 1. The peptide sample at 50 μL was dropped on a chamber slide (Merck Millipore, Millicell EZ 8-well glass) and dried under reduced pressure using a centrifugal concentrator (TAITEC CORPORATION, VC-96W), to thereby produce a chamber slide coated with the peptide. After 1.8×10^5 of mouse fetus-derived 3T3 cells (NIH3T3 cells) were suspended in 250 μL of a DMEM medium (containing 44 mM NaHCO3, Gibco, 11995-065) containing 10% serum and seeded onto the chamber slide coated with the peptide, incubation was performed in a CO2 incubator (37° C., CO2 concentration 5%) for 30 minutes. The chamber slide was washed with PBS, and cells not adhering thereto were removed. The adhering cells remaining after the washing were immobilized with 4% PFA, and then subjected to DAPI staining. The number of adhering cells was measured according to stereology as a strict quantitative determination technique which eliminates sampling biases. Specifically, nine frames of 100 μm×100 μm were created in a region of 300 μm×300 μm, and the number of cells in each of the frames was counted. The resulting number of cells was converted into the number of cells in a region of 1 mm×1 mm. In the present Example, a (RADA)4 peptide (SEQ ID NO: 19), which is known to form a cell-adhesive peptide gel, was used as a control.

[6] = Circular dichroism spectrum of peptide gels; format: physicochemical; conditions: 1.0% by weight peptide gel
Source text: The “circular dichroism” refers to a phenomenon in which a difference in absorbance occurs between left-handed circularly polarized light and right-handed circularly polarized light when a protein absorbs a circularly polarized light.
Among the peptide gels having a concentration of 1.0% by weight prepared in Example 1, three types of peptides as examples: […] peptide (SEQ ID NO: 4), […] peptide (SEQ ID NO: 2), and […] peptide (SEQ ID NO: 5) were subjected to measurement of circular dichroism spectra at 20° C., 40° C., 60° C., and 80° C. and circular dichroism spectra when re-cooled from 80° C. to 20° C.
The circular dichroism spectrum was measured with a JASCO J-1100 CD Spectrometer by using an assembly cell (GL Sciences, AB20-UV-0.1, cell length 0.1 mm). The measurement range was from 190 to 400 nm, the data-obtaining interval was 0.2 nm, the scanning speed was 200 nm/min, and the specimen concentration was 1.0% by weight. When the circular dichroism spectrum was measured, the temperature was controlled with JASCO temperature regulation unit and a water-cooled Peltier cell holder PTC-514.

Row | Substance | gelling (loss of fluidity after vertical flipping of the microtube) [4] | also measured
1 | GFP-RADA16 fusion peptide (from UniProt P42212 1-238) | – | incorporation rate [1]: < 70%
2 | RADARADARADARADA [(RADA)4, reference compound] | – | G' (Pa) ([2]; 2.2% TFA aq.): 265 Pa; G' (Pa) ([3]; pH 3-4, peptide concentration 1.0% by weight): 30^*3 Pa
3 | RIDADMRARIR | gelled | G' (Pa) ([2]; DMEM (pH 7.4), 20°C): 47,500 Pa
4 | RIDARMDARIR | gelled | G' (Pa) ([2]; DMEM (pH 7.4), 20°C): 58,300 Pa; cell adhesiveness (number of adhering cells) [5]: comparable with or more than a (RADA)4 peptide; circular dichroism signal (β-sheet structure) [6]: negative cotton effect around 220 nm
5 | RIDARMRADIR | gelled | G' (Pa) ([2]; DMEM (pH 7.4), 20°C): 21,300 Pa; cell adhesiveness (number of adhering cells) [5]: comparable with or more than a (RADA)4 peptide; circular dichroism signal (β-sheet structure) [6]: negative cotton effect around 220 nm
6 | RIDARMRADMR | gelled | –
7 | RIRADIRADMR | gelled | –
8 | RIRADIRGDIR | gelled | –
9 | RIRADMDARIR | gelled | –
10 | RIRADMRADIR | gelled | G' (Pa) ([2]; DMEM (pH 7.4), 20°C): 4,830 Pa; cell adhesiveness (number of adhering cells) [5]: comparable with or more than a (RADA)4 peptide; circular dichroism signal (β-sheet structure) [6]: negative cotton effect around 220 nm
11 | RIRADMRGDIR | gelled | –
12 | RIRARMDADIR | gelled | G' (Pa) ([2]; DMEM (pH 7.4), 20°C): 6,500 Pa
13 | RIRGDIRADIR | gelled | –
14 | RIRGDIRGDIR | gelled | –
15 | RIRGDMRADIR | gelled | –
16 | RIRGDMRGDIR | gelled | G' (Pa) ([2]; DMEM (pH 7.4), 20°C): 47,800 Pa
17 | RLDLRLALRLDLR [SPG178, known peptide gelling agent] | – | G' (Pa) ([3]; pH 7, peptide concentration 1.0% by weight): 70^*3 Pa; G' (Pa) ([3]; pH 7, peptide concentration 1.5% by weight): 300^*3 Pa
18 | RMDADMRARIR | gelled | –
19 | RMDARIDARIR | gelled | –
20 | RVDVDVRVRVR | did not gel | –
21 | RVDVRVDVRVR | did not gel | –
22 | RVDVRVRVDVR | did not gel | –
23 | RVRVDVDVRVR | did not gel | –
24 | RVRVDVRVDVR | did not gel | –
25 | RVRVRVDVDVR | did not gel | –
